Results: patent US20120263734A1 (THERACLONE SCIENCES, published 2012)

Target: GPCMV gB (glycoprotein B of Guinea Pig CMV strain V545/82) (guinea pig CMV (GPCMV))
Test: cell-based or functional assay

Binder	neutralization of GPCMV V545/82 entry into JH4 cells (highest concentration tested, no effect) [µg/mL]
2N9 human anti-CMV antibody (antibody, V domains shown) VH: QVQLVESGGGVVQPGRSLRLSCAASGFTFSSNGIHWVRQAPGKGLDWVAVISSDANDKQYADSVKGRFTISRDNSKNMVYLQMNSLRVEDTAVYFCARDGTCSGGNCYSGLIDYWGRGILVTVSS VL: EIVLTQSPATLSLSPGERATLSCRASQSVGGYLAWYQQKPGQAPRLLIYDASIRATGIPARFSGSGSGTDFTLTISSLEPEDFAVYYCHQRSNWPPLTFGGGTKVDIKR	> 300
2F10 human anti-CMV antibody (antibody, V domains shown) VH: QVHLVESGGGVVQPGRALRLSCAATGFTFSNHGIHWVRQAPGKGLEWLAVISSDGDDDRYADSVKGRFSVSRDNSKNTVHLQMNGLRPDDTAIYFCARDGRCGEPKCYSGLPDYWGRGTLVTVSS VL: EIVLTQSPATLSLSPGDRATLSCRASQSVGGYLAWYQQKPGQAPRLLLYDASNRATGIPARFSGSGSGTDFTLTISSLEPEDFALYYCLQRNTWPPLTFGGGTKVEIKR	> 300
5P9 human anti-CMV antibody (antibody, V domains shown) VH: QVQLVESGGGVIQPGRSLRLSCVASKFIFSNHGIHWVRQAPGKGLEWVAVISKDGTNAHYADSVRGRFSISRDNSKDTVFLEMRSLRPEDTAVYYCAREGRCIEEKCYSGQIDYWGQGSLVTVSS VL: EILLTQSPATLSLSPGERATLSCRASQSVGRYMAWYQQRPGQAPRLLIYDASIRATGIPARFSGSGSGTDFTLTISSLQTEDFAIYYCQQRSSWPPLTFGGGTKVEIKR	> 300
4P12 human anti-CMV antibody (antibody, V domains shown) VH: QVQLVESGGGVIQPGRSLRLSCVASKFIFSNHGIHWVRQAPGKGLEWVAVISKDGTNAHYADSVRGRFSISRDNSKDTVFLEMRSLRPEDTAVYYCAREGRCIEENCYSGQIDYWGQGSLVTVSS VL: EILLTQSPATLSLSPGERATLSCRASQSVGRYMAWYQQRPGQAPRLLIYDASIRATGIPARFSGSGSGTDFTLTISSLQPEDFAIYYCQQRSSWPPLTFGGGTKVEIKR	> 300
